Reference: US20050113303

Target: [D-Ala^2,Leu^5]enkephalin

Row | Protein | production of Tyr-D-Ala-Gly from the substrate, HPLC
1 | recombinant human NEP (neprilysin, expressed from human NEP cDNA in COS-7 cells) (protein) MESQMDITDINTPKPKKKQRWTPLEISLSVLVLLLTIIAVTMIALYATYDDGICKSSDCIKSAARLIQNMDATTEPCTDFFKYACGGWLKRNVIPETSSRYGNFDILRDELEVVLKDVLQEPKTEDIVAVQKAKALYRSCINESAIDSRGGEPLLKLLPDIYGWPVATENWEQKYGASWTAEKAIAQLNSKYGKKVLINLFVGTDDKNSVNHVIHIDQPRLGLPSRDYYECTGIYKEACTAYVDFMISVARLIRQEERLPIDENQLALEMNKVMELEKEIANATAKPEDRNDPMLLYNKMTLAQIQNNFSLEINGKPFSWLNFTNEIMSTVNISITNEEDVVVYAPEYLTKLKPILTKYSARDLQNLMSWRFIMDLVSSLSRTYKESRNAFRKALYGTTSETATWRRCANYVNGNMENAVGRLYVEAAFAGESKHVVEDLIAQIREVFIQTLDDLTWMDAETKKRAEEKALAIKERIGYPDDIVSNDNKLNNEYLELNYKEDEYFENIIQNLKFSQSKQLKKLREKVDKDEWISGAAVVNAFYSSGRNQIVFPAGILQPPFFSAQQSNSLNYGGIGMVIGHEITHGFDDNGRNFNKDGDLVDWWTQQSASNFKEQSQCMVYQYGNFSWDLAGGQHLNGINTLGENIADNGGLGQAYRAYQNYIKKNGEEKLLPGLDLNHKQLFFLNFAQVWCGTYRPEYAVNSIKTDVHSPGNFRIIGTLQNSAEFSEAFHCRKNSYMNPEKKCRVW | production of Tyr-D-Ala-Gly from the substrate was evident only in NEP-expressing membrane preparations
2 | recombinant human PEX protein (full-length, expressed from plasmid pPEX in COS-7 cells) (protein) MEAETGSSVETGKKANRGTRIALVVFVGGTLVLGTILFLVSQGLLSLQAKQEYCLKPECIEAAAAILSKVNLSVDPCDNFFRFACDGWISNNPIPEDMPSYGVYPWLRHNVDLKLKELLEKSISRRRDTEAIQKAKILYSSCMNEKAIEKADGKPLLHILRHSPFRWPVLESNIGPEGVWSERKFSLLQTLATFRGQYSNSVFIRLYVSPDDKASNEHILKLDQATLSLAVREDYLDNSTEAKSYRDALYKFMVDTAVLLGANSSRAEHDMKSVLRLEIKIAEIMIPHENRTSEAMYNKMNISELSAMIPQFDWLGYIKKVIDTRLYPHLKDISPSENVVVRVPQYFKDLFRILGSERKKTIDNYLVWRMVYSRIPNLSRRFQYRWLEFSRVIQGTTTLLPQRDKCVNFIESALPYVVGKMFVDVYFQEDKKEMMEELVEGVRWAFIDMLEKENEWMDAGTKRKAKEKARAVLAKVGYPEFIMNDTHVNEDLKAIKFSEADYFGNVLQTRKYLAQSDFFWLRKAVPKTEWFTNPTTVNAFYSASTNQIRFPAGELQKPFFWGTEYPRSLSYGAIGVIVGHEFTHGFDNNGRKYDKNGNLDPWWSTESEEKFKEKTKCMINQYSNYYWKKAGLNVKGKRTLGENIADNGGLREAFRAYRKWINDRRQGLEEPLLPGITFTNNQLFFLSYAHVRCNSYRPEAAREQVQIGAHSPPQFRVNGAISNFEEFQKAFNCPPNSTMNRGMDSCRLW | production of Tyr-D-Ala-Gly from the substrate was evident only in NEP-expressing membrane preparations
